# Numbered stars: 1 amine (or outer) side, 2 acyl side, 3 side chain; on linkers, the order of the positions; unused ones are H or OH. Square brackets hold non-standard residues; d marks the D form. Side chains are listed from the residue outwards. * marks the point of attachment. C16 diacid = O=C(O)CCCCCCCCCCCCCCC(=O)*; γGlu = O=C(O)[C@H](CCC(=O)[*:2])N[*:1]; 1Nal = N[C@@H](Cc1cccc2ccccc12)C(=O)O; Aib = CC(C)(N)C(=O)O
# T1: human GIP receptor (human, UniProt P48546 22-466)
# T1 sequence (looked up): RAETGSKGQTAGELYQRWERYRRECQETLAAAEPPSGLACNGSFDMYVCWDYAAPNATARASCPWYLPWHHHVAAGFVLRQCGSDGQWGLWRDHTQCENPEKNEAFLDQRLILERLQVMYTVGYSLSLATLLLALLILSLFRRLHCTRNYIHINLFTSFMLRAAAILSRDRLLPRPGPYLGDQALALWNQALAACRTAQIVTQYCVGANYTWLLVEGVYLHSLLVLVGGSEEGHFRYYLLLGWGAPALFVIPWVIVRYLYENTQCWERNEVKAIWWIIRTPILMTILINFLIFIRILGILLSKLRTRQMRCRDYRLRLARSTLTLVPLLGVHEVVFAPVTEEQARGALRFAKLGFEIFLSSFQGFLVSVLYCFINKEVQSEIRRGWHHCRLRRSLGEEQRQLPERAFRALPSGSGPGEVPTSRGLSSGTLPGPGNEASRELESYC
# Key:
# human GLP-1 receptor = human GLP-1 receptor (human, UniProt P43220 24-463); assay: cell-based or functional assay
# human GIP receptor = biological target: T1, human GIP receptor; assay: cell-based or functional assay
"EC50, cAMP induction in HEK293 cells expressing human GLP-1 R (human GLP-1 receptor) [nM]","EC50, cAMP induction in HEK293 cells expressing human GIP R (human GIP receptor) [nM]",Binder
0.02,0.022,H-Y[Aib]EGTFTSDYSIYLDKK([γGlu-C16 diacid])AQRAFVNWLLA[Aib]K-NH2 (SMILES CC[C@H](C)[C@H](NC(=O)[C@H](CO)NC(=O)[C@H](Cc1ccc(O)cc1)NC(=O)[C@H](CC(=O)O)NC(=O)[C@H](CO)NC(=O)[C@@H](NC(=O)[C@H](Cc1ccccc1)NC(=O)[C@@H](NC(=O)CNC(=O)[C@H](CCC(=O)O)NC(=O)C(C)(C)NC(=O)[C@@H](N)Cc1ccc(O)cc1)[C@@H](C)O)[C@@H](C)O)C(=O)N[C@@H](Cc1ccc(O)cc1)C(=O)N[C@@H](CC(C)C)C(=O)N[C@@H](CC(=O)O)C(=O)N[C@@H](CCCCN)C(=O)N[C@@H](CCCCNC(=O)CC[C@H](NC(=O)CCCCCCCCCCCCCCC(=O)O)C(=O)O)C(=O)N[C@@H](C)C(=O)N[C@@H](CCC(N)=O)C(=O)N[C@@H](CCCNC(=N)N)C(=O)N[C@@H](C)C(=O)N[C@@H](Cc1ccccc1)C(=O)N[C@H](C(=O)N[C@@H](CC(N)=O)C(=O)N[C@@H](Cc1c[nH]c2ccccc12)C(=O)N[C@@H](CC(C)C)C(=O)N[C@@H](CC(C)C)C(=O)N[C@@H](C)C(=O)NC(C)(C)C(=O)N[C@@H](CCCCN)C(N)=O)C(C)C) [Compound 31]
0.0085,0.096,H-Y[Aib]EGTFTSDYSIYLDKKAQRAFVNWLL[Aib]K-NH2 (SMILES CC[C@H](C)[C@H](NC(=O)[C@H](CO)NC(=O)[C@H](Cc1ccc(O)cc1)NC(=O)[C@H](CC(=O)O)NC(=O)[C@H](CO)NC(=O)[C@@H](NC(=O)[C@H](Cc1ccccc1)NC(=O)[C@@H](NC(=O)CNC(=O)[C@H](CCC(=O)O)NC(=O)C(C)(C)NC(=O)[C@@H](N)Cc1ccc(O)cc1)[C@@H](C)O)[C@@H](C)O)C(=O)N[C@@H](Cc1ccc(O)cc1)C(=O)N[C@@H](CC(C)C)C(=O)N[C@@H](CC(=O)O)C(=O)N[C@@H](CCCCN)C(=O)N[C@@H](CCCCN)C(=O)N[C@@H](C)C(=O)N[C@@H](CCC(N)=O)C(=O)N[C@@H](CCCNC(=N)N)C(=O)N[C@@H](C)C(=O)N[C@@H](Cc1ccccc1)C(=O)N[C@H](C(=O)N[C@@H](CC(N)=O)C(=O)N[C@@H](Cc1c[nH]c2ccccc12)C(=O)N[C@@H](CC(C)C)C(=O)N[C@@H](CC(C)C)C(=O)NC(C)(C)C(=O)N[C@@H](CCCCN)C(N)=O)C(C)C) [Compound 24]
0.074,0.3,H-Y[Aib]EGTFTSDYSIYLDKKAEKAFVNWLLA[Aib]K-NH2 (SMILES CC[C@H](C)[C@H](NC(=O)[C@H](CO)NC(=O)[C@H](Cc1ccc(O)cc1)NC(=O)[C@H](CC(=O)O)NC(=O)[C@H](CO)NC(=O)[C@@H](NC(=O)[C@H](Cc1ccccc1)NC(=O)[C@@H](NC(=O)CNC(=O)[C@H](CCC(=O)O)NC(=O)C(C)(C)NC(=O)[C@@H](N)Cc1ccc(O)cc1)[C@@H](C)O)[C@@H](C)O)C(=O)N[C@@H](Cc1ccc(O)cc1)C(=O)N[C@@H](CC(C)C)C(=O)N[C@@H](CC(=O)O)C(=O)N[C@@H](CCCCN)C(=O)N[C@@H](CCCCN)C(=O)N[C@@H](C)C(=O)N[C@@H](CCC(=O)O)C(=O)N[C@@H](CCCCN)C(=O)N[C@@H](C)C(=O)N[C@@H](Cc1ccccc1)C(=O)N[C@H](C(=O)N[C@@H](CC(N)=O)C(=O)N[C@@H](Cc1c[nH]c2ccccc12)C(=O)N[C@@H](CC(C)C)C(=O)N[C@@H](CC(C)C)C(=O)N[C@@H](C)C(=O)NC(C)(C)C(=O)N[C@@H](CCCCN)C(N)=O)C(C)C) [Compound 27]
0.39,0.8,H-Y[Aib]EGTFTSDYSIYLDKKAQRAFVNWLLAYG[1Nal]LDF-NH2 (SMILES CC[C@H](C)[C@H](NC(=O)[C@H](CO)NC(=O)[C@H](Cc1ccc(O)cc1)NC(=O)[C@H](CC(=O)O)NC(=O)[C@H](CO)NC(=O)[C@@H](NC(=O)[C@H](Cc1ccccc1)NC(=O)[C@@H](NC(=O)CNC(=O)[C@H](CCC(=O)O)NC(=O)C(C)(C)NC(=O)[C@@H](N)Cc1ccc(O)cc1)[C@@H](C)O)[C@@H](C)O)C(=O)N[C@@H](Cc1ccc(O)cc1)C(=O)N[C@@H](CC(C)C)C(=O)N[C@@H](CC(=O)O)C(=O)N[C@@H](CCCCN)C(=O)N[C@@H](CCCCN)C(=O)N[C@@H](C)C(=O)N[C@@H](CCC(N)=O)C(=O)N[C@@H](CCCNC(=N)N)C(=O)N[C@@H](C)C(=O)N[C@@H](Cc1ccccc1)C(=O)N[C@H](C(=O)N[C@@H](CC(N)=O)C(=O)N[C@@H](Cc1c[nH]c2ccccc12)C(=O)N[C@@H](CC(C)C)C(=O)N[C@@H](CC(C)C)C(=O)N[C@@H](C)C(=O)N[C@@H](Cc1ccc(O)cc1)C(=O)NCC(=O)N[C@@H](Cc1cccc2ccccc12)C(=O)N[C@@H](CC(C)C)C(=O)N[C@@H](CC(=O)O)C(=O)N[C@@H](Cc1ccccc1)C(N)=O)C(C)C) [Compound 26]
0.041,0.12,H-Y[Aib]EGTFTSDYSIYLDKKAQRAFVNWLLA[Aib]KYG[1Nal]LDF-NH2 (SMILES CC[C@H](C)[C@H](NC(=O)[C@H](CO)NC(=O)[C@H](Cc1ccc(O)cc1)NC(=O)[C@H](CC(=O)O)NC(=O)[C@H](CO)NC(=O)[C@@H](NC(=O)[C@H](Cc1ccccc1)NC(=O)[C@@H](NC(=O)CNC(=O)[C@H](CCC(=O)O)NC(=O)C(C)(C)NC(=O)[C@@H](N)Cc1ccc(O)cc1)[C@@H](C)O)[C@@H](C)O)C(=O)N[C@@H](Cc1ccc(O)cc1)C(=O)N[C@@H](CC(C)C)C(=O)N[C@@H](CC(=O)O)C(=O)N[C@@H](CCCCN)C(=O)N[C@@H](CCCCN)C(=O)N[C@@H](C)C(=O)N[C@@H](CCC(N)=O)C(=O)N[C@@H](CCCNC(=N)N)C(=O)N[C@@H](C)C(=O)N[C@@H](Cc1ccccc1)C(=O)N[C@H](C(=O)N[C@@H](CC(N)=O)C(=O)N[C@@H](Cc1c[nH]c2ccccc12)C(=O)N[C@@H](CC(C)C)C(=O)N[C@@H](CC(C)C)C(=O)N[C@@H](C)C(=O)NC(C)(C)C(=O)N[C@@H](CCCCN)C(=O)N[C@@H](Cc1ccc(O)cc1)C(=O)NCC(=O)N[C@@H](Cc1cccc2ccccc12)C(=O)N[C@@H](CC(C)C)C(=O)N[C@@H](CC(=O)O)C(=O)N[C@@H](Cc1ccccc1)C(N)=O)C(C)C) [Compound 25]
0.022,0.015,H-Y[Aib]EGTFTSDYSIALDKIAQRAFVNWLVA[Aib]K-NH2 (SMILES CC[C@H](C)[C@H](NC(=O)[C@H](CCCCN)NC(=O)[C@H](CC(=O)O)NC(=O)[C@H](CC(C)C)NC(=O)[C@H](C)NC(=O)[C@@H](NC(=O)[C@H](CO)NC(=O)[C@H](Cc1ccc(O)cc1)NC(=O)[C@H](CC(=O)O)NC(=O)[C@H](CO)NC(=O)[C@@H](NC(=O)[C@H](Cc1ccccc1)NC(=O)[C@@H](NC(=O)CNC(=O)[C@H](CCC(=O)O)NC(=O)C(C)(C)NC(=O)[C@@H](N)Cc1ccc(O)cc1)[C@@H](C)O)[C@@H](C)O)[C@@H](C)CC)C(=O)N[C@@H](C)C(=O)N[C@@H](CCC(N)=O)C(=O)N[C@@H](CCCNC(=N)N)C(=O)N[C@@H](C)C(=O)N[C@@H](Cc1ccccc1)C(=O)N[C@H](C(=O)N[C@@H](CC(N)=O)C(=O)N[C@@H](Cc1c[nH]c2ccccc12)C(=O)N[C@@H](CC(C)C)C(=O)N[C@H](C(=O)N[C@@H](C)C(=O)NC(C)(C)C(=O)N[C@@H](CCCCN)C(N)=O)C(C)C)C(C)C) [Compound 3]

# From US20150299281A1 (ZEALAND PHARMA A S, published 2015)
